The text below walks through data of US7642244 (Hoffmann-La Roche, dated 2010).

Starred links: 1 amine or outer side, 2 acyl side, 3 side chain; linkers in the order of their positions; H or OH if unused. Non-standard residues stand in square brackets, D forms with d. No end group written: not given here. Pqa = 4-oxo-6-(1-piperazinyl)-3(4H)-quinazoline-acetic acid, O=C(Cn1cnc2ccc(N3CCN([*:1])CC3)cc2c1=O)[*:2]; Phe(3,4-Cl2) = N[C@@H](Cc1ccc(Cl)c(Cl)c1)C(=O)O; Phe(4-CF3) = N[C@@H](Cc1ccc(C(F)(F)F)cc1)C(=O)O; PEG30,000 SSA = (PEG-30,000)CH2CH2NHCOCH2CH2CO; NMeR = CN[C@@H](CCCNC(=N)N)C(=O)O

Holding throughout (assay): cell-based or functional assay
The target of one assay is T1, human NPY2 receptor (human, UniProt P49146 1-381).
T1 sequence (looked up): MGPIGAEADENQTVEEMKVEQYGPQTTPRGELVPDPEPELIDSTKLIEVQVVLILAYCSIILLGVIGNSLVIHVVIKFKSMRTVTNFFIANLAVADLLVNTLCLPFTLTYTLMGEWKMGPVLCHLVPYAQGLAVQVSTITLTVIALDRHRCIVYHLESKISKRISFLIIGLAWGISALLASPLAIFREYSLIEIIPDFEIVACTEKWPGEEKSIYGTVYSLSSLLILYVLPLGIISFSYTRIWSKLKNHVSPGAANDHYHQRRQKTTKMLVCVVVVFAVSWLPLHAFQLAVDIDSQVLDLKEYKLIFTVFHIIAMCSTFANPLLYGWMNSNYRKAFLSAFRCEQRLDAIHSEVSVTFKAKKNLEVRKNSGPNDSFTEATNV

Another assay has as its target T2, Y5R.
T2 sequence (Q15761 whole entry, species assumed, looked up): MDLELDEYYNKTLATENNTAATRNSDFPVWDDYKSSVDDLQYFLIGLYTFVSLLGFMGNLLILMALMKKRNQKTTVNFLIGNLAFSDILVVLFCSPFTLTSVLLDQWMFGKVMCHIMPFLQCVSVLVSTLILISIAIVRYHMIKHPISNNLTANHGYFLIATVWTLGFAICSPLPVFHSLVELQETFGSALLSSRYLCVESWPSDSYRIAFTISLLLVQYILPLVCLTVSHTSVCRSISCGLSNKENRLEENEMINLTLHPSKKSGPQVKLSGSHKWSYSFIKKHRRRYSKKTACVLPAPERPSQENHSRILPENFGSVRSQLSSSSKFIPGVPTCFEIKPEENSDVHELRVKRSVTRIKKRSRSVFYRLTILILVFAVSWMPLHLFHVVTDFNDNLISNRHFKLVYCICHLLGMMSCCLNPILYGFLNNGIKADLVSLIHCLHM

In the next assay the target is Y1R.
Sequence of Y1R (P25929 whole entry): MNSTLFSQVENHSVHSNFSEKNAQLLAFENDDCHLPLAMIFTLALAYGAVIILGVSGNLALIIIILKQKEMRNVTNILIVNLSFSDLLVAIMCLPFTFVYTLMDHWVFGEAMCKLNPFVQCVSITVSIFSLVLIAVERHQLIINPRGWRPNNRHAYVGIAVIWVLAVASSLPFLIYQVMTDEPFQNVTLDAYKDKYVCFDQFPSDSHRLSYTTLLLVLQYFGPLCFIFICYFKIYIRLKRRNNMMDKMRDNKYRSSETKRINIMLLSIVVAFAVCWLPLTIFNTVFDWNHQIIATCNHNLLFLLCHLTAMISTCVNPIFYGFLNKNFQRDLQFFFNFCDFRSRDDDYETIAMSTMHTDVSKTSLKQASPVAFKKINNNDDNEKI
For a further assay, the target named is Y4R.

Consider H-IK[Pqa]RHYLNLVTRQ[NMeR]F-NH2 [H-Ile-Lys-Pqa-Arg-His-Tyr-Leu-Asn-Leu-Val-Thr-Arg-Gln-(NMe)Arg-Phe-NH2], for which, in the assay with human NPY2 receptor, the “Y2R EC50 (nM) FLIPR” value was 1.54 nM and the “Y2R EC50 (nM) cAMP” value is 0.69 nM.

As for IK[Pqa]RHYLNWVTRQ[NMeR]Y-NH2 (also: mixture: PEG40,000 BTC on N-terminal Ile or on Lys ε-amino), the “Y5R EC50 (nM) FLIPR” value in the assay with Y5R was over 5000 nM. Further, in the assay with Y1R, the “Y1R EC50 (nM) FLIPR” value is over 5000 nM. Also, in the assay with Y4R, the “Y4R EC50 (nM) FLIPR” value was over 5000 nM.

As to H-IK(PEG30,000 SSA)[Pqa]RHYLNWVTRQ[NMeR]Y-NH2, the “Y5R EC50 (nM) FLIPR” value with Y5R is over 5000 nM. Besides, the “Y1R EC50 (nM) FLIPR” value in the assay with Y1R was over 5000 nM. The “Y4R EC50 (nM) FLIPR” value in the assay with Y4R was over 5000 nM.

B1: H-Ile-Nle-Pqa-Arg-His-Tyr-Leu-Asn-Trp-Val-Thr-Arg-Gln-(NMe)Arg-Tyr-NH2 (peptide)
peptide: IXXRHYLNWVTRQRY
modifications: Nle as second residue; Pqa as third residue; (NMe)Arg as penultimate residue; C-terminal amide (NH2)
Consider B1, for which, in the assay with human NPY2 receptor, the “Y2R EC50 (nM) FLIPR” value was found to be 8.1 nM and the “Y2R EC50 (nM) cAMP” value stood at 0.108 nM. For the same molecule, in the assay with Y5R, the “Y5R EC50 (nM) FLIPR” value was over 5000 nM. In the assay with Y1R, the “Y1R EC50 (nM) FLIPR” value was over 5000 nM. Moreover, the “Y4R EC50 (nM) FLIPR” value in the assay with Y4R is over 5000 nM.

B2: Trimethylacetyl-Ile-Lys-Pqa-Arg-His-Tyr-Leu-Asn-Trp-Val-Thr-Arg-Gln-(NMe)Arg-Tyr-NH2 (peptide)
peptide: IKXRHYLNWVTRQRY
HELM: PEPTIDE1{[CC(C)(C)C(=O)[*:2]].I.K.[O=C(Cn1cnc2ccc(N3CCN([*:1])CC3)cc2c1=O)[*:2]].R.H.Y.L.N.W.V.T.R.Q.[meR].Y.[am]}$$$$V2.0
SMILES: CC[C@H](C)[C@H](NC(=O)C(C)(C)C)C(=O)N[C@@H](CCCCN)C(=O)N1CCN(c2ccc3ncn(CC(=O)N[C@@H](CCCNC(=N)N)C(=O)N[C@@H](Cc4c[nH]cn4)C(=O)N[C@@H](Cc4ccc(O)cc4)C(=O)N[C@@H](CC(C)C)C(=O)N[C@@H](CC(N)=O)C(=O)N[C@@H](Cc4c[nH]c5ccccc45)C(=O)N[C@H](C(=O)N[C@H](C(=O)N[C@@H](CCCNC(=N)N)C(=O)N[C@@H](CCC(N)=O)C(=O)N(C)[C@@H](CCCNC(=N)N)C(=O)N[C@@H](Cc4ccc(O)cc4)C(N)=O)[C@@H](C)O)C(C)C)c(=O)c3c2)CC1
As to B2, in the assay with human NPY2 receptor, the “Y2R EC50 (nM) FLIPR” value was 1.1 nM and the “Y2R EC50 (nM) cAMP” value came to 0.26 nM. The “Y5R EC50 (nM) FLIPR” value with Y5R is over 5000 nM. Besides, the “Y1R EC50 (nM) FLIPR” value with Y1R was over 5000 nM. Besides, the “Y4R EC50 (nM) FLIPR” value in the assay with Y4R was over 5000 nM.

In the case of H-IK[Pqa]RHYLNLVTRQ[NMeR][Phe(3,4-Cl2)]-NH2 [H-Ile-Lys-Pqa-Arg-His-Tyr-Leu-Asn-Leu-Val-Thr-Arg-Gln-(NMe)Arg-3,4-dichloro-Phe-NH2], in the assay with human NPY2 receptor, the “Y2R EC50 (nM) FLIPR” value came to 4.03 nM and the “Y2R EC50 (nM) cAMP” value was 1.47 nM.

B3: H-Ile-Lys-Pqa-Arg-His-Tyr-Leu-Asn-Leu-Val-Thr-Arg-Gln-(NMe)Arg-4 Methoxy-Phe-NH2 (peptide)
peptide: IKXRHYLNLVTRQRF
modifications: Pqa as third residue; (NMe)Arg as penultimate residue; 4 Methoxy-Phe as C-terminal residue; C-terminal amide (NH2)
B3: in the assay with human NPY2 receptor, the “Y2R EC50 (nM) FLIPR” value came to 0.74 nM and the “Y2R EC50 (nM) cAMP” value was 0.55 nM.

B4: mixture of ((PEG-30,000)CH2CH2CO)Ile-Lys-Pqa-Arg-His-Tyr-Leu-Asn-Trp-Val-Thr-Arg-Gln-(NMe)Arg-Tyr-NH2 and … (peptide)
peptide: IK[Pqa]RHYLNWVTRQ[NMeR]Y-NH2
modifications: also: mixture: PEG30,000 SPA on N-terminal Ile or on Lys ε-amino (majority on Lys)
B4: the “Y5R EC50 (nM) FLIPR” value in the assay with Y5R was over 5000 nM. In the assay with Y1R, the “Y1R EC50 (nM) FLIPR” value is over 5000 nM. Further, the “Y4R EC50 (nM) FLIPR” value in the assay with Y4R is over 5000 nM.

B5: Cyclohexylacetyl-Ile-Lys-Pqa-Arg-His-Tyr-Leu-Asn-Trp-Val-Thr-Arg-Gln-(NMe)Arg-Tyr-NH2 (peptide)
peptide: IKXRHYLNWVTRQRY
HELM: PEPTIDE1{[O=C(CC1CCCCC1)[*:2]].I.K.[O=C(Cn1cnc2ccc(N3CCN([*:1])CC3)cc2c1=O)[*:2]].R.H.Y.L.N.W.V.T.R.Q.[meR].Y.[am]}$$$$V2.0
SMILES: CC[C@H](C)[C@H](NC(=O)CC1CCCCC1)C(=O)N[C@@H](CCCCN)C(=O)N1CCN(c2ccc3ncn(CC(=O)N[C@@H](CCCNC(=N)N)C(=O)N[C@@H](Cc4c[nH]cn4)C(=O)N[C@@H](Cc4ccc(O)cc4)C(=O)N[C@@H](CC(C)C)C(=O)N[C@@H](CC(N)=O)C(=O)N[C@@H](Cc4c[nH]c5ccccc45)C(=O)N[C@H](C(=O)N[C@H](C(=O)N[C@@H](CCCNC(=N)N)C(=O)N[C@@H](CCC(N)=O)C(=O)N(C)[C@@H](CCCNC(=N)N)C(=O)N[C@@H](Cc4ccc(O)cc4)C(N)=O)[C@@H](C)O)C(C)C)c(=O)c3c2)CC1
B5: in the assay with human NPY2 receptor, the “Y2R EC50 (nM) FLIPR” value stood at 1.67 nM and the “Y2R EC50 (nM) cAMP” value worked out at 1.37 nM. Besides, the “Y5R EC50 (nM) FLIPR” value with Y5R is over 5000 nM. Also, the “Y1R EC50 (nM) FLIPR” value with Y1R is over 5000 nM. Moreover, the “Y4R EC50 (nM) FLIPR” value in the assay with Y4R was over 5000 nM.

With H-IK[Pqa]RHYLNLVTRQ[NMeR][Phe(4-CF3)]-NH2 [H-Ile-Lys-Pqa-Arg-His-Tyr-Leu-Asn-Leu-Val-Thr-Arg-Gln-(NMe)Arg-4-trifluoro methyl-Phe-NH2], in the assay with human NPY2 receptor, the “Y2R EC50 (nM) FLIPR” value was found to be 6.13 nM and the “Y2R EC50 (nM) cAMP” value was found to be 3.55 nM.
